One may read the Kd as the free concentration of one partner at which half of the binding sites on the other are occupied at equilibrium, for simple one-to-one binding.

The assay addresses titin fragment Z9-Z10 as used in isothermal titration calorimetry (human). Briefly: ITC. For orientation: Isothermal titration calorimetry measures the heat released or taken up as one component is titrated into another.

On to “untagged obscurin fragment Ob48-Ob49 (domain or fragment)”, for which the Kd was in the range of 100 to 200 nM.
